Experimental data: PMC3177959

Target: M3 muscarinic acetylcholine receptor labeled at its N terminus with ECFP (human) (UniProt P20309)
Experiment: FRAP of the mobile partner with the other partner immobilised

Sequence of UniProt P20309 (P20309 whole entry): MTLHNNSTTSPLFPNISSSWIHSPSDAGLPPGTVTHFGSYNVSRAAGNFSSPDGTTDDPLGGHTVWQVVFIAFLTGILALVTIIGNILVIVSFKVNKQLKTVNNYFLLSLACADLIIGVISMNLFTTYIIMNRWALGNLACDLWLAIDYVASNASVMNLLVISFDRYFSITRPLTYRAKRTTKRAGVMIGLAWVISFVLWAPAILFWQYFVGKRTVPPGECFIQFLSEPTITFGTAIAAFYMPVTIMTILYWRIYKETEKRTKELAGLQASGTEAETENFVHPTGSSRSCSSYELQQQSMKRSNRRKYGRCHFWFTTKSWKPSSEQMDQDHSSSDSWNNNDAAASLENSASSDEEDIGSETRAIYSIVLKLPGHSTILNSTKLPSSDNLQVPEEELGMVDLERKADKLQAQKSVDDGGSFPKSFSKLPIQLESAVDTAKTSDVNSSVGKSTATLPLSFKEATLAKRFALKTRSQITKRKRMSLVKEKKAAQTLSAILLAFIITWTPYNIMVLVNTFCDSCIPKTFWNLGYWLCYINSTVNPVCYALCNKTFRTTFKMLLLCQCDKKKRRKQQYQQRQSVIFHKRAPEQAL

Gq heterotrimer: venus-labeled Gαq with unlabeled Gβ1 and Gγ2 (from UniProt P21279;P62873;P59768) (complex)
unrecovered fraction five minutes after photobleaching: 0.23
